Like-named read-outs stand apart in the source and are kept apart here. Positions of bridges follow the written chain, without caps; N, C: chain ends. Residues, ends and D or L forms follow the SMILES beside them.
Assays:
HVEM/LIGHT complex = assay: Competitive ELISA, inhibition of HVEM/LIGHT complex formation; type: biochemical, human; conditions: coated HVEM-His 6 µg/mL, LIGHT-Fc 2 µg/mL, highest concentration tested (50 µM)
Protocol: To assess the inhibitory properties of the peptides the ELISA was conducted. Based on the obtained results, it can be concluded that the inhibitory properties of the peptides are strongly correlated with their affinity to HVEM as determined by theoretical methods, as well as with those measured by SpS.
ELISA was conducted using transparent polystyrene 96-well plates (Brand, Wertheim, Germany). Wells were coated with HVEM-His protein at concentration 6 µg/mL dissolved in PBS-T (100 µL per well) and incubated overnight at 4 °C. Unbound sites on the wells by HVEM were blocked with 5% bovine serum albumin (BSA) in PBS-T (200 µL per well). Peptides at three concentrations 50 µM, 12.5 µM, and 3.125 µM dissolved in PBS-T were added and incubated (200 µL per well). […] In the next step horseradish peroxidase (HRP)-conjugated goat antibody (Bio-Rad, Hercules, USA) at dilution 1:3000 in PBS-T (100µL per well) was applied. After each step, wells were washed five times with 200 µL of PBS-T. Incubations were carried out at 37 °C for 2 h, except for the antibody, which was incubated for 1 h. Finally, 200 µL of TMB substrate (Thermo Fisher Scientific,Waltham, MA, USA) was added, and after 15 min of incubation in the dark, absorbance was measured at 492 nm and 650 nm using an Infinite M200 Pro reader (Tecan, Switzerland). The negative control consisted of PBS-T buffer without peptides, while the positive control was mouse anti-human HVEM antibodies (1 µg/well, Bio-Rad, Hercules, CA, USA; #MCA6072GA). Each experiment was performed in three biological replicates, each consisting of three technical replicates and data were analyzed using one-way ANOVA with Dunnett’s post-hoc test in GraphPad Prism (San Diego, USA).

[1] = tested on: HVEM/LIGHT interaction (NF-κB::eGFP activation); assay: Cellular reporter assay: JE6.1-NF-κB::eGFP HVEM reporter cells stimulated with TCS LIGHT; type: cell-based; conditions: relative to co-culture without peptides = 100%; highest tested concentration (50 µM chosen as highest); 24 h co-culture; three experiments in triplicate
Description: Reporter cells expressing the HVEM protein (JE6.1-NF-κB::eGFP HVEM) and T cell stimulators expressing LIGHT (TCS LIGHT) were utilized in cellular assays and the principle of this cell-based assay has been described in detail in previous publication. In short, when the peptides inhibited the HVEM/LIGHT interaction, a reduction in NF-κB activation was observed, accompanied by a corresponding decrease in enhanced green fluorescent protein (eGFP) levels. The percentage of reporter cell activation was calculated relative to a control condition, which was reporter cell co-cultured with TCS without peptides.
The experiments utilized the JE6.1-NF-κB::eGFP HVEM (modified Jurkat), TCS LIGHT, TCS Crtl and TCS CD86 Ctrl cell lines (modified BW5147) which have been described in earlier studies^57,58. Jurkat E6.1 cell line (describe in Supplementary Materials) was purchased from Cell Line Service GmbH, while the JE6.1-NF-κB::eGFP HVEM, TCS LIGHT, TCS Crtl and TCS CD86 Ctrl cell lines are property of the laboratory of Prof. […] The plates were incubated for 20 min at 4 °C, washed with FACS buffer (PBS, 5–10% FBS, 0.1% NaN₃), and resuspended in 50 µL of fresh FACS buffer. eGFP expression was measured using a CytoFLEX flow cytometer (Beckman Coulter, USA). Data were analyzed using FlowJo v10.10 (FlowJo LLC, USA) and GraphPad Prism (San Diego, USA) with univariate ANOVA and Dunnett’s post-hoc test. […]

LIGHT protein = LIGHT protein (UniProt O43557 1-240); assay: spectral shift (SpS); Monolith X; HVEM-His labelled with His-Tag Labeling Kit RED-tris-NTA 2nd Generation, final 50 nM; peptides 2 µM to 6.1 pM; PBS-T (0.05% Tween-20, 0.3 M NaCl, pH 7.4); fluorescence ratio 670/650 nm; 25 °C; apparent Kd (peptides aggregated at higher concentrations); conditions: both partners purified
HVEM-His protein [2] = target: T1, HVEM-His protein (Homo sapiens, UniProt Q92956); conditions: SpS technique; previously determined by the authors; read-out: Kd of LIGHT binding to HVEM; cited from earlier work
T1 construct: purchased ACROBiosystems
T1 sequence (Q92956 39-283): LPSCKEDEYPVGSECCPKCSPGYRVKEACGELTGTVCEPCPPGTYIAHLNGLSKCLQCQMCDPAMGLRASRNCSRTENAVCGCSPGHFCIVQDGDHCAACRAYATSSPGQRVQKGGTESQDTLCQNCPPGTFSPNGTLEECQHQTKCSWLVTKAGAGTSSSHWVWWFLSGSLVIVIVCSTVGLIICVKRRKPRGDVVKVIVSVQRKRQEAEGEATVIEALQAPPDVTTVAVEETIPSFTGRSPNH

HVEM = target: HVEM; set-up: method as in 2 sources, ref 11 = [11]; PMID 25087510; doi:10.1016/j.str.2014.06.013; 11. Liu W Mechanistic basis for functional promiscuity in the TNF and TNF receptor superfamilies: structure of the LIGHT:DcR3 assembly Structure 2014 22 1252 10.1016/j.str.2014.06.013 25087510 PMC4163 ||| ref 41 = [41]; PMID 20175993; doi:10.1016/j.bbrc.2010.02.119; 41. Morishige T Creation of a lysine-deficient LIGHT mutant with the capacity for site-specific pegylation and low affinity for a decoy receptor Biochem. Biophys. Res. Commun. 2010 393 888 893 10.1016; conditions: other research group, read-out: Kd of HVEM/LIGHT complex, cited from earlier work
HVEM-His protein [3] = target: T1, HVEM-His protein; assay: Spectral shift (SpS) affinity of peptides to HVEM; type: binding; conditions: spectral shift (Monolith X, 670/650 nm), 50 nM RED-tris-NTA labelled HVEM-His, ligand 2 µM to 6.1 pM, PBS-T pH 7.4 with 0.3 M NaCl, 25 °C; mean of triplicate; apparent, approximate value only
Protocol: Based on the computer analyses conducted for the designed peptides in complex with the HVEM, five compounds – peptides light1, light2, light3, light4, and light3_E178L were selected for experimental validation and their affinity to HVEM was evaluated using SpS.Fluorescence intensity was measured at 670 and 650 nm (Figure S4). […] Due to the fact that peptides at higher concentrations aggregated, it was not possible to fully determine the Kd. Therefore, only the apparent Kd values were determined and were used for HVEM binding strength comparison. Note that apparent Kd is only approximate value and should be used only for qualitative comparison.
SpS experiments were conducted using the Monolith X instrument (Nanotemper, Munich, Germany). Protein labelling was performed using the His-Tag Labeling Kit RED-tris-NTA 2nd Generation (Nanotemper, Munich, Germany). To prepare the fluorescent dye solution at concentration 0.1 µM, 2 µL of a 5 µM dye stock was diluted in 98 µL of deionized water. […] The mixtures were loaded into Monolith X-compatible capillary tubes, and fluorescence ratios (670/650 nm) were measured at 40% excitation power and average IR laser power at a temperature of 25 °C. Data were analyzed using MO.Control 2 software (version 2.5.4, NanoTemper, Munich, Germany). […]

In the case of `CC(=O)N[C@H](C(=O)N[C@H]1CSSC[C@@H](C(=O)N[C@@H](CO)C(N)=O)NC(=O)[C@H](CCC(N)=O)NC(=O)[C@H](CO)NC(=O)[C@H](C(C)C)NC(=O)[C@H](CC(C)C)NC(=O)[C@H](CC(C)C)NC(=O)[C@H](CCC(=O)O)NC(=O)[C@H](CC(C)C)NC(=O)[C@H](CCC(=O)O)NC(=O)[C@H](CCC(=O)O)NC(=O)[C@@H]2CCCN2C(=O)[C@H](Cc2ccc(O)cc2)NC(=O)[C@H](CCCNC(=N)N)NC(=O)[C@@H]2CCCN2C(=O)[C@H]([C@@H](C)O)NC(=O)[C@H](CCCNC(=N)N)NC(=O)[C@H](CCCCN)NC(=O)[C@H](Cc2ccc(O)cc2)NC(=O)[C@H](CC(C)C)NC(=O)CNC(=O)[C@H](Cc2c[nH]cn2)NC(=O)[C@H]([C@@H](C)O)NC1=O)[C@@H](C)O` [light3] (Ac-TCTHGLYKRTPRYPEELELLVSQCS-NH2; disulfide 2-24), the “inhibition of HVEM/LIGHT complex formation” value (HVEM/LIGHT complex) is reported as 22% and the “reporter cell activation level” value [1] is reported as 78%.

In the case of `CC(=O)N[C@H](C(=O)N[C@H]1CSSC[C@@H](C(=O)N[C@@H](CO)C(N)=O)NC(=O)[C@H](CCC(N)=O)NC(=O)[C@H](CO)NC(=O)[C@H](C(C)C)NC(=O)[C@H](CC(C)C)NC(=O)[C@H](CC(C)C)NC(=O)[C@H](CC(C)C)NC(=O)[C@H](CC(C)C)NC(=O)[C@H](CCC(=O)O)NC(=O)[C@H](CCC(=O)O)NC(=O)[C@@H]2CCCN2C(=O)[C@H](Cc2ccc(O)cc2)NC(=O)[C@H](CCCNC(=N)N)NC(=O)[C@@H]2CCCN2C(=O)[C@H]([C@@H](C)O)NC(=O)[C@H](CCCNC(=N)N)NC(=O)[C@H](CCCCN)NC(=O)[C@H](Cc2ccc(O)cc2)NC(=O)[C@H](CC(C)C)NC(=O)CNC(=O)[C@H](Cc2c[nH]cn2)NC(=O)[C@H]([C@@H](C)O)NC1=O)[C@@H](C)O` [light3_E178L] (Ac-TCTHGLYKRTPRYPEELLLLVSQCS-NH2; disulfide 2-24), the “inhibition of HVEM/LIGHT complex formation” value (HVEM/LIGHT complex) is reported as 19% and the “reporter cell activation level” value [1] is reported as 74%.

B1: HVEM-His protein (receptor, UniProt Q92956 39-202, looked up)
chain: LPSCKEDEYPVGSECCPKCSPGYRVKEACGELTGTVCEPCPPGTYIAHLNGLSKCLQCQMCDPAMGLRASRNCSRTENAVCGCSPGHFCIVQDGDHCAACRAYATSSPGQRVQKGGTESQDTLCQNCPPGTFSPNGTLEECQHQTKCSWLVTKAGAGTSSSHWV
modifications: labelled with RED-tris-NTA 2nd Generation dye on the His tag (spectral shift only)
notes: Herpes virus entry mediator (HVEM); No catalogue number printed; also called herpes virus entry mediator; source: bought: ACROBiosystems
B1 gave a Kd (LIGHT protein) of 920 nM.

B2: LIGHT: LIGHT protein, TNFSF ligand of HVEM (protein)
chain: MEESVVRPSVFVVDGQTDIPFTRLGRSHRRQSCSVARVGLGLLLLLMGAGLAVQGWFLLQLHWRLGEMVTRLPDGPAGSWEQLIQERRSHEVNPAAHLTGANSSLTGSGGPLLWETQLGLAFLRGLSYHDGALVVTKAGYYYIYSKVQLGGVGCPLGLASTITHGLYKRTPRYPEELELLVSQQSPCGRATSSSRVWWDSSFLGGVVHLEAGEKVVVRVLDERLVRLRDGTRSYFGAFMV
For B2, the Kd (HVEM-His protein [2]) is given as 920 nM, the Kd (HVEM; ref 11) is given as 18.7 nM and the Kd (HVEM; ref 41) is given as 1.5 nM. For the same molecule, the Kd (HVEM-His protein [3]) was 920 nM.
